# Reference: the supplement of paper PMC12855868
# B1: library; numbered along this chain (parent)
# chain: MAAAGGARLLRAASAVLGGPAGRWLHHAGSRAGSSGLLRNRGPGGSAEASRSLSVSARARSSSEDKITVHFINRDGETLTTKGKVGDSLLDVVVENNLDIDGFGACEGTLACSTCHLIFEDHIYEKLDAITDEENDMLDLAYGLTDRSRLGCQICLTKSMDNMTVRVPETVADARQSIDVGKTS
# Variants of: B1
# Assay: scaled log2 fold change in cell abundance, elesclomol vs control (0 = silent mean, 1 = nonsense mean) (scaled log2 ratio); higher = higher viability under elesclomol (loss of FDX1 cuproptosis function)
# Conditions: glucose 10 mM
# [1] = with ABC1 FDX1 KO, elesclomol 5 nM, 14 days
# [2] = with HEK293T FDX1 KO, elesclomol 40 nM, 11 days
# 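Also: variant abundance is its share of total variant reads in each endpoint sample, from next-generation sequencing of the integrated ORF PCR-amplified out of genomic DNA.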
Variant,scaled log2 fold change [1],scaled log2 fold change [2]
MAAAGGARLLRAASAVLGGPAGRWLHHAGSRAGSSGLLRNRGPGGSAEASRSLSVSARARSSSEDKITVHFINRDGETLTTKGKVGDSLLDVVVENNLDIDGFGACEGTLACSTCHLIFEDHIYEKLDAITDEENDMLDLAYGLTDRSRLGCQACLTKSMDNMTVRVPETVADARQSIDVGKTS [I154A],0.161,0.851
MAAAGGARLLRAASAVLGGPAGRWLHHAGSRAGSSGLLRNRGPGGSAEASRSLSVSARARSSSEDKITVHFINRDGETLTTKGKVGDSLLDVVVENNLDIDGFGACEGTLACSTCHLIFEDHIYEKLDAITDEENDMLDLAYGLTDRSRLGCQGCLTKSMDNMTVRVPETVADARQSIDVGKTS [I154G],1.1,1.27
MAAAGGARLLRAASAVLGGPAGRWLHHAGSRAGSSGLLRNRGPGGSAEASRSLSVSARARSSSEDKITVHFINRDGETLTTKGKVGDSLLDVVVENNLDIDGFGACEGTLACSTCHLIFEDHIYEKLDAITDEENDMLDLAYGLTDRSRLGCQCCLTKSMDNMTVRVPETVADARQSIDVGKTS [I154C],-0.101,0.0571
MAAAGGARLLRAASAVLGGPAGRWLHHAGSRAGSSGLLRNRGPGGSAEASRSLSVSARARSSSEDKITVHFINRDGETLTTKGKVGDSLLDVVVENNLDIDGFGACEGTLACSTCHLIFEDHIYEKLDAITDEENDMLDLAYGLTDRSRLGCQHCLTKSMDNMTVRVPETVADARQSIDVGKTS [I154H],0.392,0.163
MAAAGGARLLRAASAVLGGPAGRWLHHAGSRAGSSGLLRNRGPGGSAEASRSLSVSARARSSSEDKITVHFINRDGETLTTKGKVGDSLLDVVVENNLDIDGFGACEGTLACSTCHLIFEDHIYEKLDAITDEENDMLDLAYGLTDRSRLGCQECLTKSMDNMTVRVPETVADARQSIDVGKTS [I154E],1.05,0.819
MAAAGGARLLRAASAVLGGPAGRWLHHAGSRAGSSGLLRNRGPGGSAEASRSLSVSARARSSSEDKITVHFINRDGETLTTKGKVGDSLLDVVVENNLDIDGFGACEGTLACSTCHLIFEDHIYEKLDAITDEENDMLDLAYGLTDRSRLGCQDCLTKSMDNMTVRVPETVADARQSIDVGKTS [I154D],1.18,1.22
MAAAGGARLLRAASAVLGGPAGRWLHHAGSRAGSSGLLRNRGPGGSAEASRSLSVSARARSSSEDKITVHFINRDGETLTTKGKVGDSLLDVVVENNLDIDGFGACEGTLACSTCHLIFEDHIYEKLDAITDEENDMLDLAYGLTDRSRLGCQFCLTKSMDNMTVRVPETVADARQSIDVGKTS [I154F],0.839,0.781
MAAAGGARLLRAASAVLGGPAGRWLHHAGSRAGSSGLLRNRGPGGSAEASRSLSVSARARSSSEDKITVHFINRDGETLTTKGKVGDSLLDVVVENNLDIDGFGACEGTLACSTCHLIFEDHIYEKLDAITDEENDMLDLAYGLTDRSRLGCTICLTKSMDNMTVRVPETVADARQSIDVGKTS [Q153T],0.212,-0.179
MAAAGGARLLRAASAVLGGPAGRWLHHAGSRAGSSGLLRNRGPGGSAEASRSLSVSARARSSSEDKITVHFINRDGETLTTKGKVGDSLLDVVVENNLDIDGFGACEGTLACSTCHLIFEDHIYEKLDAITDEENDMLDLAYGLTDRSRLGCYICLTKSMDNMTVRVPETVADARQSIDVGKTS [Q153Y],0.621,0.0427
MAAAGGARLLRAASAVLGGPAGRWLHHAGSRAGSSGLLRNRGPGGSAEASRSLSVSARARSSSEDKITVHFINRDGETLTTKGKVGDSLLDVVVENNLDIDGFGACEGTLACSTCHLIFEDHIYEKLDAITDEENDMLDLAYGLTDRSRLGCRICLTKSMDNMTVRVPETVADARQSIDVGKTS [Q153R],-0.0672,1.14
MAAAGGARLLRAASAVLGGPAGRWLHHAGSRAGSSGLLRNRGPGGSAEASRSLSVSARARSSSEDKITVHFINRDGETLTTKGKVGDSLLDVVVENNLDIDGFGACEGTLACSTCHLIFEDHIYEKLDAITDEENDMLDLAYGLTDRSRLGCWICLTKSMDNMTVRVPETVADARQSIDVGKTS [Q153W],0.543,0.414
MAAAGGARLLRAASAVLGGPAGRWLHHAGSRAGSSGLLRNRGPGGSAEASRSLSVSARARSSSEDKITVHFINRDGETLTTKGKVGDSLLDVVVENNLDIDGFGACEGTLACSTCHLIFEDHIYEKLDAITDEENDMLDLAYGLTDRSRLGCPICLTKSMDNMTVRVPETVADARQSIDVGKTS [Q153P],0.884,0.923
MAAAGGARLLRAASAVLGGPAGRWLHHAGSRAGSSGLLRNRGPGGSAEASRSLSVSARARSSSEDKITVHFINRDGETLTTKGKVGDSLLDVVVENNLDIDGFGACEGTLACSTCHLIFEDHIYEKLDAITDEENDMLDLAYGLTDRSRLGCVICLTKSMDNMTVRVPETVADARQSIDVGKTS [Q153V],-0.0289,0.299
MAAAGGARLLRAASAVLGGPAGRWLHHAGSRAGSSGLLRNRGPGGSAEASRSLSVSARARSSSEDKITVHFINRDGETLTTKGKVGDSLLDVVVENNLDIDGFGACEGTLACSTCHLIFEDHIYEKLDAITDEENDMLDLAYGLTDRSRLGCMICLTKSMDNMTVRVPETVADARQSIDVGKTS [Q153M],-0.153,-0.595
MAAAGGARLLRAASAVLGGPAGRWLHHAGSRAGSSGLLRNRGPGGSAEASRSLSVSARARSSSEDKITVHFINRDGETLTTKGKVGDSLLDVVVENNLDIDGFGACEGTLACSTCHLIFEDHIYEKLDAITDEENDMLDLAYGLTDRSRLGCSICLTKSMDNMTVRVPETVADARQSIDVGKTS [Q153S],0.243,0.372
MAAAGGARLLRAASAVLGGPAGRWLHHAGSRAGSSGLLRNRGPGGSAEASRSLSVSARARSSSEDKITVHFINRDGETLTTKGKVGDSLLDVVVENNLDIDGFGACEGTLACSTCHLIFEDHIYEKLDAITDEENDMLDLAYGLTDRSRLGCNICLTKSMDNMTVRVPETVADARQSIDVGKTS [Q153N],-0.0628,0.314
